Consider 36 sequences from the supplement of paper PMC10567573.

± gives the standard deviation.

This series is described as follows: protein stability index of a GFP-peptide fusion (GPS, HEK-293T) (PSI 1-6); higher = more stable. As to conditions: c terminus: a fixed tail appended.
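Further: 24-mer peptide tiles fused after GFP, lentivirally expressed, FACS-sorted into six equal bins by GFP/DsRed ratio, decoded by Illumina sequencing, PSI is the read-weighted mean bin number.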

As to PIDVVEKYDPKTQEWSFLPSITRK [KLHL12], the protein stability index is 4.56 ± 0.27 (treatment: DMSO) and 4.64 ± 0.33 (treatment: MLN4924 1 uM, 8 h).
In turn, PIVSSLADPLDTPPDSKEGIVVES [PDZK1] came in with a protein stability index (treatment: DMSO) of 5.37 ± 0.14 and a protein stability index (treatment: MLN4924 1 uM, 8 h) of 5.25 ± 0.48.
For PLDVVKVRLQSQRPSMASELMPSS [SLC25A39], in that order: 3.65 ± 0.34 and 3.59 ± 0.36.
Take PLLPLDMQGNQILVFPSSSSSSSS [ZBTB22]: the protein stability index was 3.93 ± 0.24 (treatment: DMSO) and 4.1 ± 0.18 (treatment: MLN4924 1 uM, 8 h).
Taken in the same sequence, the figures for PNADLLFSDPSQSDPETKDFWLNM [FCHO1] were 4.2 ± 0.21 and 4.19 ± 0.19.
For PNAGEQPGQVAGADFESEDEGEEF [EID1], in that order: 5.59 ± 0.28 and 5.46 ± 0.33.
Taken in the same sequence, the figures for PPAADAPVTQIGFEAPPLQGQAAA [TRIM55] were 5.07 ± 0.47 and 5.15 ± 0.28.
Turning to PPDSKEGIVVESNHDSHMAKERAH [PDZK1], the protein stability index came to 5.55 ± 0.36 (treatment: DMSO) and 5.55 ± 0.23 (treatment: MLN4924 1 uM, 8 h).
On to PPKASEQETAKEEDGSVELESQVQ [C18orf25], for which the protein stability index was 5.42 ± 0.17 (treatment: DMSO) and 5.67 ± 0.081 (treatment: MLN4924 1 uM, 8 h).
For PPLRVIVKDALFCSCLSDILRFIY [RHOBTB3], in that order: 2.78 ± 0.16 and 2.84 ± 0.27.
With PPLSDPKQAKVVARRESGGRPIKP [BRD3], the protein stability index (treatment: DMSO) came out at 5.21 ± 0.15 and the protein stability index (treatment: MLN4924 1 uM, 8 h) stood at 5.12 ± 0.18.
In the case of PPNADLEQGFQEGVPNASVIMQVP [MFF], the protein stability index stood at 4.83 ± 0.18 (treatment: DMSO) and 4.72 ± 0.33 (treatment: MLN4924 1 uM, 8 h).
Regarding PPPPPSYDPDYIQCPYCQRRFNEN [ZC2HC1A], the protein stability index by setting is: (treatment: DMSO) 5.27 ± 0.34; (treatment: MLN4924 1 uM, 8 h) 5.44 ± 0.17.
For PPQGGCGGGGCDRYEPLPPSLPAA [KCNA3], in that order: 4.53 ± 0.16 and 4.7 ± 0.23.
PPRRSRSRSHDRLPYQRRYRERRD [CLK3]: the protein stability index reads like this: (treatment: DMSO) 4.51 ± 0.29; (treatment: MLN4924 1 uM, 8 h) 4.72 ± 0.32.
Taken in the same sequence, the figures for PPSYGGSSRYDDYSSSRDGYGGSR [RBMX] were 4.612 ± 0.036 and 4.66 ± 0.33.
For PPVVAHYDMSDTNSDPEVVNVDNL [C18orf25], in that order: 5.43 ± 0.18 and 5.46 ± 0.31.
Taken in the same sequence, the figures for PQDLAPQVSAHHRSQESLTSQESE [TBC1D10A] were 5.64 ± 0.15 and 5.56 ± 0.23.
In the case of PQGLFVEALSVPLSLCVSSHLALP [CLPTM1], the protein stability index runs as follows: (treatment: DMSO) 2.96 ± 0.59; (treatment: MLN4924 1 uM, 8 h) 2.91 ± 0.41.
Take PQSSKSTVVKSLIDNSSEIEDEDQ [FAN1]: the protein stability index by setting is: (treatment: DMSO) 5.65 ± 0.14; (treatment: MLN4924 1 uM, 8 h) 5.6 ± 0.25.
As for PRSAEPGYLVTKVVAVDRDSGQNA [PCDHGA10], the protein stability index was found to be 4.77 ± 0.16 (treatment: DMSO) and 4.7 ± 0.29 (treatment: MLN4924 1 uM, 8 h).
Take PSLLELAWEKLLAAFPNLANLSRT [KLHDC10]: the protein stability index (treatment: DMSO) worked out at 2.56 ± 0.21 and the protein stability index (treatment: MLN4924 1 uM, 8 h) worked out at 2.55 ± 0.24.
Turning to PSNARGPILSRSTSTGSAASSGSN [SPRY1], the protein stability index is, setting by setting: (treatment: DMSO) 4.96 ± 0.17; (treatment: MLN4924 1 uM, 8 h) 5.01 ± 0.12.
As for PSPSTLEPHPRPLLQRELMVPGTR [TNXB], the protein stability index worked out at 4.4 ± 0.24 (treatment: DMSO) and 4.36 ± 0.59 (treatment: MLN4924 1 uM, 8 h).
Taken in the same sequence, the figures for PSPVRAPAPSPAKEERKTEVVMNS [PALM] were 5.35 ± 0.36 and 5.53 ± 0.13.
For PSQDERMRSPQNLHSQEDDDSSSE [NOL4L], in that order: 5.62 ± 0.14 and 5.56 ± 0.21.
PSQRLVQNCLWTLRNLSDAATKQE [CTNNB1] gave a protein stability index (treatment: DMSO) of 3.31 ± 0.18 and a protein stability index (treatment: MLN4924 1 uM, 8 h) of 3.19 ± 0.25.
For PSSMDLLIQDSPDSSTSPKGKQPT [NANOGP8], in that order: 5.2 ± 0.2 and 5.3 ± 0.18.
For PSSQKALLLELKGLQEEPVEGFRV [CDC34], in that order: 3.68 ± 0.14 and 3.47 ± 0.14.
In the case of PTDRNLCHFQALGCRTTHSNQEVL [PYCR3], the protein stability index came to 2.49 ± 0.35 (treatment: DMSO) and 2.37 ± 0.22 (treatment: MLN4924 1 uM, 8 h).
For the sequence PTFRFLTKMWHPNIYENGDVCISI [UBE2R2], the protein stability index was determined as 3.01 ± 0.68 (treatment: DMSO) and 3.15 ± 0.71 (treatment: MLN4924 1 uM, 8 h).
Regarding PTHQAHTVGFLDEAIQPYRDRLRS [TRIM15], the protein stability index came to 4.52 ± 0.039 (treatment: DMSO) and 4.44 ± 0.13 (treatment: MLN4924 1 uM, 8 h).
As for PVAQSTDAIRGKVGYTRGLHVWQI [SPSB1], the protein stability index runs as follows: (treatment: DMSO) 2.15 ± 0.13; (treatment: MLN4924 1 uM, 8 h) 2.21 ± 0.17.
For PVTRNERHSYQVYRQPIPVQELVL [NET1], the protein stability index is, setting by setting: (treatment: DMSO) 2.79 ± 0.23; (treatment: MLN4924 1 uM, 8 h) 2.88 ± 0.23.
QAGSSQGLSLCQFQNFSLHDPLYG [LPCAT4]: the protein stability index was determined as 3 ± 0.41 (treatment: DMSO) and 2.98 ± 0.31 (treatment: MLN4924 1 uM, 8 h).
Take QAIDATVAAELLNHLLESMPLREG [HES6]: the protein stability index was 2.43 ± 0.41 (treatment: DMSO) and 2.3 ± 0.28 (treatment: MLN4924 1 uM, 8 h).
